From US6852907 come the findings set out here.

In the data set the target is T1, BV1 movement protein, untagged (tomato leaf curl virus (New Delhi)) (UniProt A0A143TU21).
T1 sequence: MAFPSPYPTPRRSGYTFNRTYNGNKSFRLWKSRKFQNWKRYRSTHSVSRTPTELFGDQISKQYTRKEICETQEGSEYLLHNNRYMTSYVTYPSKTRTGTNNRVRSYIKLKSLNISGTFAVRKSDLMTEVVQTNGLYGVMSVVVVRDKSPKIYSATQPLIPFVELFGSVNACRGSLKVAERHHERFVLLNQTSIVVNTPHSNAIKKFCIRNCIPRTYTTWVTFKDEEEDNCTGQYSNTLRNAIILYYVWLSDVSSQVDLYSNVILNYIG
In words: cell_activity. The note with it: ssDNA accumulation in BY2 protoplasts (indirect), range 50-121.

“ToLCV-Nde A component viral ssDNA (CP-replacement constructs)” had a binding signal (% of wild type ssDNA) of 86.
